B1: H1H295P: anti-hANGPTL4 antibody, HCVR/LCVR SEQ ID NOs 186/188 (antibody, V domains shown)
VH: EVQLVESGGGLVQPGGSLRLSCAASGFTFSTYDMHWVRQAPGKGLEWVSAIGSAGDTYYPGSVKGRFTISRDNAKSSLFLQMNSLRAGDTALYYCARGDSRNYFVGDYFDYWGQGTLVTVSS
VL: DIQMTQSPSTLSASVGDRVTITCRASQSIGTWLAWYQQKPGKAPKILIYKASSLEGGVPSRFSGSGSGTEFTLTISSLQPDDFANYYCQQYNSFYRTFGQGTKVEIK
B2: H1H257P: anti-hANGPTL4 antibody, HCVR/LCVR SEQ ID NOs 18/20 (antibody, V domains shown)
VH: EVQLVESGGGLVQPGGSLRLSCAASGFTFSSYDMHWVRQVAGKGLEWVSAIGTAGDTYYPVSVKGRFTISRENAKNSLYLHMNSLRAGDTAVYFCARGDSRNYYVGDYFDYWGQGTLVTVSS
VL: DIQMTQSPSTLSASVGDRVTITCRASQSISRWLAWYQQKPGKAPKVLIYQASNLESGVPSRFSGSGSGTEFTLTISSLQPDDFATYYCQQYDSYSRAFGRGTKVEIK
B3: H1H292P: anti-hANGPTL4 antibody, HCVR/LCVR SEQ ID NOs 162/164 (antibody, V domains shown)
VH: B2 VH with A23V, V40L, A41P, T53V, V61A, H81Q, F94Y, R101G, V105D, Y111F
VL: B2 VL with S30N, Q50K, S95F, A97T, R100Q
B4: H1H283P: anti-hANGPTL4 antibody, HCVR/LCVR SEQ ID NOs 66/68 (antibody, V domains shown)
VH: B2 VH
VL: B2 VL with Q50K, D92N, A97T, R100Q
B5: H1H285P: anti-hANGPTL4 antibody, HCVR/LCVR SEQ ID NOs 114/116 (antibody, V domains shown)
VH: B2 VH with S31R, A41T, A50G, V61G, A74D, H81Q, A87V, F94Y, R101K
VL: DIQMTQSPSTLSASVGDRVTFTCRASHSIGNWLAWYQQKPGKAPKVLIYEASSLEDGVPSRFSGSGSGTEFTLTISSLQPDDFATYYCQQYDTYFRTFGQGTKVEIK
B6: H1H638P: anti-hANGPTL4 antibody, HCVR/LCVR SEQ ID NOs 258/260 (antibody, V domains shown)
VH: B2 VH with A23V, S49A, Y79S, F94Y
VL: B2 VL with Q50K, N53S, E55K, P80S, D92N, A97T, R100Q
B7: H1H291P: anti-hANGPTL4 antibody, HCVR/LCVR SEQ ID NOs 138/140 (antibody, V domains shown)
VH: B1 VH with A40G, P41L, Q81H
VL: B1 VL with V15I, G30S, T31S, I46V, G56A, N85S, N92S, F94Y, Y95S
B8: H1H653P: anti-hANGPTL4 antibody, HCVR/LCVR SEQ ID NOs 306/308 (antibody, V domains shown)
VH: QVQLVESGGGVVQPGRSLRLSCVASGFTFSSYGMHWVRQAPGKGLEWMAVIWYDGSNKYFADSVKDRFTISRDNSKNTLYLQMNTLRPDDTAVYYCVKADAPLLIYGVDVWGQGTTVTVS
VL: DIQMTQSPSSLSASVGDRVTITCRASQGIRNDLGWYQEKPGKAPKRLIYFASSLQSGVPSRFSGSGSGTEFTLTISSLQPEDFATYYCLQHNSYPYTFGQGTKLEIK
B9: H1H236N2: anti-hANGPTL4 antibody, HCVR/LCVR SEQ ID NOs 458/394 (antibody, V domains shown)
VH: EVQLVESGGGLVQPGRSLRLSCAASGFTFDDYAMHWVRQAPGKGLEWVSGISWNSGSIVYADSVKGRFTISRDNAKNSLYLQMNSLISEDTALYYCAKDESSSSGNWFDPWGQGTLVTVSS
VL: EVVMTQSPATLSVSPGERATLSCRASQSVSSNLAWYQQKPGQAPRLLIYGASTRATGIPARFSGSGSGTEFTLTISSLQSEDFAVYYCQEYNNWITFGQGTRLEIK
B10: H1H624P: anti-hANGPTL4 antibody, HCVR/LCVR SEQ ID NOs 210/212 (antibody, V domains shown)
VH: EVQLVESGGGLVQPGGSLRLSCAASEFIFSSYAMNWVRQAPGKGLEWVSVISGSGDSKYYADSVKGRFTISRDNSKNTLYLQMNSLRVEDTAVYYCAKDGKDRYGFYYNFYGMDVWGQGTTVTVS
VL: DIQMTQSPSFLSASVGDRVTITCWASQGISSYLAWYQQKPGKAPKILIYAASTLQSGVPSRFSASGSGTEFTLTISSLQPEDFATYHCQQLNSYPFTFGPGTKVDIK

Residue numbers refer to the chain shown, from its start.

The assay relates to C57BL/6 mice given hANGPTL4-mFc. It is filed as in vivo. The note with it: antibody 5 mg/kg s.c.; 24 h later hANGPTL4-mFc 25 μg/mouse i.v.; bled 30 min after; mean±SEM. How it is done:
In another set of experiments, selected anti-hANGPTL4 antibodies were tested for their ability to inhibit hANGPTL4-induced increase of triglyceride levels. Measurements of total cholesterol, LDL, NEFA-C and HDL were also made. Briefly, C57BL/6 mice were put into groups of five mice each for each antibody tested. Antibodies were administered at 5 mg/kg dose by subcutaneous injection. Control group I, i.e., mice that received neither anti-hANGPTL4 antibodies nor hANGPTL4, were administered with PBS. Twenty-four hours post-injection of antibody, hANGPTL4-mFc (SEQ ID NO:480) was administered (i.v.) at a dose of 25 μg/mouse to each antibody group. Mice were bled at 30 min after hANGPTL4-mFc injection and lipid levels were determined by ADVIA® 1650 Chemistry System (Siemens). Averages were calculated for each of the measurements of triglycerides, total cholesterol (Total-C), LDL, NEFA-C and HDL for each antibody or control group. Levels of circulating anti-hANGPTL4 antibodies (Serum Ab) were also determined using a standard ELISA assay. Briefly, plates were coated with a goat anti-human Fc antibody (Sigma-Aldrich) to capture Serum Ab. Serum was then added to the plates and captured anti-hANGPTL4 antibodies were detected by chemiluminescence using a horseradish peroxidase (HRP) conjugated goat anti-human IgG antibody (Sigma-Aldrich). Control I: Mice that received PBS, but neither anti-hANGPTL4 antibodies nor hANGPTL4-mFc. Control II: Mice that received a human antibody specific for CD20 (i.e., the mAb having the sequence of 2F2 clone disclosed in US 2008/0260641) and hANGPTL4-mFc.
In the case of B1, the HDL was 39.70 ± 3.13 mg/dL, the LDL came out at 4.04 ± 0.40 mg/dL, the NEFA-C stood at 1.12 ± 0.04 mg/dL and the Total-C was 74.60 ± 4.82 mg/dL. Besides, the Triglycerides was found to be 104.80 ± 9.44 mg/dL.

The molecule B2 returned an HDL of 41.38 ± 3.24 mg/dL, an LDL of 5.30 ± 0.36 mg/dL, an NEFA-C of 0.97 ± 0.03 mg/dL and a Total-C of 84.40 ± 3.53 mg/dL. The Triglycerides turned out to be 115.80 ± 6.43 mg/dL.

With B3, the HDL was 39.44 ± 1.68 mg/dL, the LDL is reported as 3.96 ± 0.15 mg/dL, the NEFA-C is given as 1.06 ± 0.06 mg/dL and the Total-C is 74.40 ± 2.11 mg/dL. The molecule further returned a Triglycerides of 85.80 ± 7.00 mg/dL.

In turn, B4 returned an HDL of 40.30 ± 0.72 mg/dL, an LDL of 4.62 ± 0.39 mg/dL, an NEFA-C of 1.13 ± 0.05 mg/dL and a Total-C of 75.80 ± 1.53 mg/dL. In addition, the Triglycerides is listed as 113.60 ± 8.74 mg/dL.

Take B5: the HDL is listed as 42.20 ± 0.91 mg/dL, the LDL was 3.72 ± 0.44 mg/dL, the NEFA-C is on record as 0.97 ± 0.06 mg/dL and the Total-C turned out to be 76.40 ± 1.75 mg/dL. Besides, the Triglycerides amounted to 91.40 ± 11.99 mg/dL.

On to B6, for which the HDL stood at 39.54 ± 1.65 mg/dL, the LDL is 4.14 ± 0.18 mg/dL, the NEFA-C is listed as 1.06 ± 0.05 mg/dL and the Total-C is listed as 73.80 ± 2.78 mg/dL. In addition, the Triglycerides turned out to be 102.80 ± 10.75 mg/dL.

Take B7: the HDL was found to be 38.24 ± 2.14 mg/dL, the LDL stood at 3.84 ± 0.12 mg/dL, the NEFA-C stood at 1.11 ± 0.04 mg/dL and the Total-C was determined as 71.20 ± 3.26 mg/dL. Also, the Triglycerides was 111.00 ± 7.51 mg/dL.

As for B8, the HDL was found to be 40.10 ± 2.72 mg/dL, the LDL is listed as 3.84 ± 0.32 mg/dL, the NEFA-C worked out at 1.04 ± 0.1 mg/dL and the Total-C came out at 74.20 ± 4.49 mg/dL. This molecule registered a Triglycerides of 88.00 ± 13.52 mg/dL.

Molecule B9 showed an HDL of 33.78 ± 1.13 mg/dL, an LDL of 4.26 ± 0.25 mg/dL, an NEFA-C of 1.11 ± 0.18 mg/dL and a Total-C of 72.40 ± 1.81 mg/dL. The same molecule had a Triglycerides of 151.80 ± 9.26 mg/dL.

With B10, the HDL was found to be 35.40 ± 2.68 mg/dL, the LDL is 4.36 ± 0.92 mg/dL, the NEFA-C stood at 0.86 ± 0.07 mg/dL and the Total-C turned out to be 72.80 ± 5.49 mg/dL. The same molecule had a Triglycerides of 81.20 ± 9.26 mg/dL.

Source of the values: patent US9120851B2, “Human antibodies to human angiopoietin-like protein 4” (Regeneron Pharmaceuticals, Inc., priority 2009, dated 2015).
